Measurements published in patent publication US7834144B2 (priority 2005, dated 2010).
Several values for one entry are separate records, joined by “and”; a condition that tells them apart may be missing. Equal entries are not always repeated. Where two headings read alike, the source gives them in different places. Where no end group is shown, it is not given here. [ ]: non-standard residue; d: D form. Nab = not defined here; Nbn = not defined here

Legend:
PrP^Sc [1] = target: T1, PrP^Sc (Homo sapiens, UniProt P04156); details: Table 15
PrPc [2] = target: T2, PrPc (Homo sapiens, UniProt P04156); details: for LU, Pulldown, PrPC / pg, Pulldown, PrPC: 3M GdnSCN; for pg, Pulldown, PrPC: rPrP standard curve
PrPc [3] = target: T2, PrPc
PrPc [4] = target: T2, PrPc; details: Table 16
PrP^Sc [5] = target: T1, PrP^Sc
PrP^Sc [6] = target: T1, PrP^Sc; details: Table 16
PrP^Sc [7] = target: T1, PrP^Sc; remark: listed apart in the source
[8] = NaOH (50 μl) 0.0001M, pH 10, NaH2PO4 (20 μl) 0.0003M
[9] = NaOH (50 μl) 0.001M, pH 11, NaH2PO4 (20 μl) 0.003M
[10] = NaOH (50 μl) 0.1M, pH 12, NaH2PO4 (20 μl) 0.03M
[11] = NaOH (50 μl) 0.1M, pH 13, NaH2PO4 (20 μl) 0.3M
[12] = 70 ul plasma (70%) + 50 nl 10% normal BH
[13] = 50 μl GdnSCN 3M, pH 5.9, 50 μl NaHCO3, final pH 8.5
[14] = H3PO4 (50 μl) 0.00007M, pH 4, NaOH (25 μl) 0.0031N
[15] = H3PO4 (50 μl) 0.00075M, pH 3, NaOH (25 μl) 0.031N
[16] = H3PO4 (50 μl) 0.12M, pH 2, NaOH (25 μl) 0.31N
[17] = H3PO4 (50 μl) 0.5M, pH 1, NaOH (25 μl) 3.1N

Peptoid Reagent XIIb: peptoid reagent comprising SEQ ID NO: 240, Nab-Nab-Nab-Nbn-Nab-Nbn, covalently bound to magnetic beads ([Nab][Nab][Nab][Nbn][Nab][Nbn]; reading uncertain; also: covalently bound to magnetic beads, printed as Nab-Nab-Nab-Nbn-Nab-Nbn)
S/N (PrP^Sc [1]; NaOH 0.001M, pH 11): 1
S/N (PrP^Sc [1]; NaOH 0.1M, pH 12): 5
S/N (PrP^Sc [1]; NaOH 0.1M, pH 13): 30
AVE vCJD + Plasma (PrP^Sc [1]; [8]): 34.8
AVE vCJD + Plasma (PrP^Sc [1]; [9]): 11.8
AVE vCJD + Plasma (PrP^Sc [1]; [10]): 76.1
AVE vCJD + Plasma (PrP^Sc [1]; [11]): 458.1
LU, Pulldown, PrPC (PrPc [2]; [12]): 25.6 LU
pg, Pulldown, PrPC (PrPc [2]; [12]): 7.3 pg
LU, Pulldown, PrPC (PrPc [2]; 70 ul plasma (70%)): 23 LU and 23.3 LU
pg, Pulldown, PrPC (PrPc [2]; 70 ul plasma (70%)): 6.0 pg
PrP^C bound by peptoid (PrPc [2]; plasma containing about 488 pg of PrP^C): 7 pg
Nomal BH (RLU) ave, Pulldown (PrPc [3]; 10 nL of 10% normal BH in 50% pooled normal human plasma, XIIb-beads): 9.9 RLU
No BH (RLU) ave, Pulldown (PrPc [3]; no BH, 50% pooled normal human plasma, XIIb-beads (background)): 9.0 RLU
AVE Plasma (PrPc [4]; [13]): 5.5
AVE Plasma (PrPc [4]; 100 μl TBST, pH 7.5): 2.2
AVE Plasma (PrPc [4]; [14]): 8.7
AVE Plasma (PrPc [4]; [15]): 19.9
AVE Plasma (PrPc [4]; [16]): 8.0
AVE Plasma (PrPc [4]; [17]): 11.9
AVE Plasma (PrPc [4]; [8]): 3.1
AVE Plasma (PrPc [4]; [9]): 3.6
AVE Plasma (PrPc [4]; [10]): 5.1
AVE Plasma (PrPc [4]; [11]): 5.2
enrichment of PrP^Sc over PrP^C (PrP^Sc [5]; 47 pg PrP^Sc pulled down vs 7 pg of about 488 pg PrP^C): ≥ 70 fold
increase in signal (PrP^Sc [5]; 0.05 μl vCJD BH spiked into 70 μl plasma, versus background): four fold increase in signal
LU, Pulldown, PrPSc (PrP^Sc [5]; 70 ul plasma (70%) + 50 nl 10% vCJD BH, 3M GdnSCN): 97.1 LU
pg, Pulldown, PrPSc (PrP^Sc [5]; 70 ul plasma (70%) + 50 nl 10% vCJD BH, 3M GdnSCN, rPrP standard curve): 47 pg and 47.1 pg
AVE vCJD + Plasma (PrP^Sc [6]; [13]): 60.5
AVE vCJD + Plasma (PrP^Sc [6]; 100 μl TBST, pH 7.5): 2.2
S/N (PrP^Sc [6]; 100 μl TBST, pH 7.5): 1
S/N (PrP^Sc [6]; H3PO4 0.00007M, pH 4): 1
S/N (PrP^Sc [6]; H3PO4 0.00075M, pH 3): 1
S/N (PrP^Sc [6]; H3PO4 0.12M, pH 2): 2
S/N (PrP^Sc [6]; H3PO4 0.5M, pH 1): 5
AVE vCJD + Plasma (PrP^Sc [6]; [14]): 7.6
AVE vCJD + Plasma (PrP^Sc [6]; [15]): 21.8
AVE vCJD + Plasma (PrP^Sc [6]; [16]): 14.6
AVE vCJD + Plasma (PrP^Sc [6]; [17]): 57.1
S/N (PrP^Sc [6]; NaOH 0.0001M, pH 10): 1
S/N (PrP^Sc [6]; NaOH 0.001M, pH 11): 2
S/N (PrP^Sc [6]; NaOH 0.1M, pH 12): 1
S/N (PrP^Sc [6]; NaOH 0.1M, pH 13): 7
AVE vCJD + Plasma (PrP^Sc [6]; [8]): 2.8
AVE vCJD + Plasma (PrP^Sc [6]; [9]): 8.8
AVE vCJD + Plasma (PrP^Sc [6]; [10]): 7.3
AVE vCJD + Plasma (PrP^Sc [6]; [11]): 36.9
Avg LU, 3F4 Beads (PrP^Sc [7]; vCJD 0 nL BH/asy (background)): 1.62 LU
Avg LU, C17 Beads (PrP^Sc [7]; vCJD 0 nL BH/asy (background)): 11.84 LU
S/N, 3F4 Beads (PrP^Sc [7]; vCJD 0 nL BH/asy (background)): 1.0
S/N, C17 Beads (PrP^Sc [7]; vCJD 0 nL BH/asy (background)): 1.0
Avg LU, 3F4 Beads (PrP^Sc [7]; vCJD 1 nL BH/asy): 3.11 LU
Avg LU, C17 Beads (PrP^Sc [7]; vCJD 1 nL BH/asy): 16.53 LU
S/N, 3F4 Beads (PrP^Sc [7]; vCJD 1 nL BH/asy): 1.9
S/N, C17 Beads (PrP^Sc [7]; vCJD 1 nL BH/asy): 1.4
Avg LU, 3F4 Beads (PrP^Sc [7]; vCJD 5 nL BH/asy): 2.25 LU
Avg LU, C17 Beads (PrP^Sc [7]; vCJD 5 nL BH/asy): 26.08 LU
S/N, 3F4 Beads (PrP^Sc [7]; vCJD 5 nL BH/asy): 1.4
S/N, C17 Beads (PrP^Sc [7]; vCJD 5 nL BH/asy): 2.2
S/N, 3F4 Beads (PrP^Sc [7]; vCJD 10 nL BH/asy): 1.7
S/N, C17 Beads (PrP^Sc [7]; vCJD 10 nL BH/asy): 3.5
Avg LU, 3F4 Beads (PrP^Sc [7]; vCJD 10 nL BH/asy, 3F4 capture, C2-AP detection): 2.83 LU
Avg LU, C17 Beads (PrP^Sc [7]; vCJD 10 nL BH/asy, C17 capture, C2-AP detection): 41.86 LU
